Data on 38 substances can be found in patent publication US20220273789A1.

This experiment deals with human IgG (human). Kind of experiment: BLI (Octet), gEgI on Ni-NTA sensor, hIgG in solution. A general note: Biolayer interferometry detects binding as a change in optical thickness at a sensor tip.
By Kd is commonly meant a measure of binding affinity in units of concentration. Higher therefore signals weaker binding. The koff is a measure of how fast the partners let go of each other. Lower therefore signals slow dissociation. For orientation: kon means a measure of how fast the partners come together. A high value points to faster complex formation. “HSV2-gE_H245S P319L_gI (from UniProt P89475 21-416; P06764 21-256) (receptor)” gave an equilibrium dissociation constant (Kd) of 292 nM, a Response of 0.323 nm, an off-rate (koff) of 0.0019 s⁻¹ and an association rate constant (kon) of 6520 M⁻¹ s⁻¹.
The like results for “HSV2-gE_P317S V340W_gI (from UniProt P89475 21-416; P06764 21-256) (receptor)” were, in that order, 351 nM, 0.131 nm, 0.00282 s⁻¹ and 8050 M⁻¹ s⁻¹.
The matching figures for “HSV2-gE_P318D S338H_gI (from UniProt P89475 21-416; P06764 21-256) (receptor)”: 280 nM, 0.18 nm, 0.00215 s⁻¹ and 7690 M⁻¹ s⁻¹.
The substance “HSV2-gE_R314G V340R_gI (from UniProt P89475 21-416; P06764 21-256) (receptor)” returned an equilibrium dissociation constant (Kd) of 394 nM, a Response of 0.439 nm, a koff of 0.00245 s⁻¹ and an association rate constant (kon) of 6230 M⁻¹ s⁻¹.
The substance “HSV2-gE_R314L F322I_gI (from UniProt P89475 21-416; P06764 21-256) (receptor)” came in with a Kd of 274 nM, a Response of 0.433 nm, an off-rate (koff) of 0.00277 s⁻¹ and an on-rate (kon) of 10100 M⁻¹ s⁻¹.
The matching figures for “HSV2-gE_R314P F322A_gI (from UniProt P89475 21-416; P06764 21-256) (receptor)”: 247 nM, 0.655 nm, 0.00423 s⁻¹ and 17100 M⁻¹ s⁻¹.
“HSV2-gE_R314G F322P_gI (from UniProt P89475 21-416; P06764 21-256) (receptor)” gave a Kd of 181 nM, a Response of 0.439 nm, an off-rate constant (koff) of 0.00209 s⁻¹ and an on-rate (kon) of 11500 M⁻¹ s⁻¹.
Consider “HSV2-gE_R314P P318D_gI (from UniProt P89475 21-416; P06764 21-256) (receptor)”, for which the equilibrium dissociation constant (Kd) was 222 nM, the Response came out at 0.306 nm, the koff amounted to 0.00145 s⁻¹ and the kon was found to be 6520 M⁻¹ s⁻¹.
“HSV2-gE_P317S V340M_gI (from UniProt P89475 21-416; P06764 21-256) (receptor)” yielded an equilibrium dissociation constant (Kd) of 269 nM, a Response of 0.623 nm, a dissociation rate constant (koff) of 0.0039 s⁻¹ and an on-rate (kon) of 14500 M⁻¹ s⁻¹.
The matching figures for “HSV2-gE_R314P V340M_gI (from UniProt P89475 21-416; P06764 21-256) (receptor)”: 402 nM, 0.525 nm, 0.0046 s⁻¹ and 11400 M⁻¹ s⁻¹.
The matching figures for “HSV2-gE_R314L P318I_gI (from UniProt P89475 21-416; P06764 21-256) (receptor)”: 261 nM, 0.294 nm, 0.00198 s⁻¹ and 7580 M⁻¹ s⁻¹.
With “HSV2-gE_P319G V340R_gI (from UniProt P89475 21-416; P06764 21-256) (receptor)”, the Kd was 197 nM, the Response is 0.287 nm, the koff stood at 0.00137 s⁻¹ and the kon is 6960 M⁻¹ s⁻¹.
The like results for “HSV2-gE_P319G V340M_gI (from UniProt P89475 21-416; P06764 21-256) (receptor)” were, in that order, 297 nM, 0.393 nm, 0.00393 s⁻¹ and 13200 M⁻¹ s⁻¹.
Turning to “HSV2-gE_P317F S338G_gI (from UniProt P89475 21-416; P06764 21-256) (receptor)”, the dissociation constant Kd came out at 399 nM, the Response is 0.153 nm, the koff came to 0.00248 s⁻¹ and the kon is 6220 M⁻¹ s⁻¹.
Substance “HSV2-gE_R314G P318D_gI (from UniProt P89475 21-416; P06764 21-256) (receptor)” registered a Kd of 369 nM, a Response of 0.122 nm, a koff of 0.0033 s⁻¹ and an on-rate constant (kon) of 8930 M⁻¹ s⁻¹.
The like results for “HSV2-gE_P319G V340W_gI (from UniProt P89475 21-416; P06764 21-256) (receptor)” were, in that order, 385 nM, 0.106 nm, 0.00249 s⁻¹ and 6460 M⁻¹ s⁻¹.
As to “HSV2-gE_P318R S338H_gI (from UniProt P89475 21-416; P06764 21-256) (receptor)”, the dissociation constant Kd is 5.32 nM, the Response was 0.192 nm, the off-rate constant (koff) stood at 4.28e-05 s⁻¹ and the kon came to 8050 M⁻¹ s⁻¹.
Substance “HSV2-gE_P318D S338L_gI (from UniProt P89475 21-416; P06764 21-256) (receptor)” had a Kd of 163 nM, a Response of 0.303 nm, a koff of 0.00107 s⁻¹ and a kon of 6560 M⁻¹ s⁻¹.
Take “HSV2-gE_P317S V340R_gI (from UniProt P89475 21-416; P06764 21-256) (receptor)”: the Kd was determined as 277 nM, the Response came to 0.403 nm, the off-rate (koff) came out at 0.00191 s⁻¹ and the kon turned out to be 6890 M⁻¹ s⁻¹.
With “HSV2-gE_P317S S338G_gI (from UniProt P89475 21-416; P06764 21-256) (receptor)”, the Kd is 302 nM, the Response was 0.595 nm, the off-rate (koff) is 0.00453 s⁻¹ and the kon stood at 15000 M⁻¹ s⁻¹.
On to “HSV2-gE_P317K V340M_gI (from UniProt P89475 21-416; P06764 21-256) (receptor)”, for which the Kd was 297 nM, the Response was 0.238 nm, the dissociation rate constant (koff) is 0.00199 s⁻¹ and the on-rate (kon) came out at 6690 M⁻¹ s⁻¹.
The matching figures for “HSV2-gE_P317K S338G_gI (from UniProt P89475 21-416; P06764 21-256) (receptor)”: 238 nM, 0.198 nm, 0.00167 s⁻¹ and 7030 M⁻¹ s⁻¹.
“HSV2-gE_R314L V340R_gI (from UniProt P89475 21-416; P06764 21-256) (receptor)” displayed a Kd of 615 nM, a Response of 0.284 nm, a koff of 0.00307 s⁻¹ and an on-rate (kon) of 4990 M⁻¹ s⁻¹.
The like results for “HSV2-gE_P317S S338L_gI (from UniProt P89475 21-416; P06764 21-256) (receptor)” were, in that order, 167 nM, 0.549 nm, 0.00163 s⁻¹ and 9770 M⁻¹ s⁻¹.
In turn, “HSV2-gE_P317S S338H_gI (from UniProt P89475 21-416; P06764 21-256) (receptor)” came in with an equilibrium dissociation constant (Kd) of 154 nM, a Response of 0.516 nm, a koff of 0.0021 s⁻¹ and an on-rate (kon) of 13600 M⁻¹ s⁻¹.
In turn, “HSV2-gE_R314G V340M_gI (from UniProt P89475 21-416; P06764 21-256) (receptor)” displayed a dissociation constant Kd of 390 nM, a Response of 0.466 nm, an off-rate (koff) of 0.00401 s⁻¹ and an on-rate (kon) of 10300 M⁻¹ s⁻¹.
Consider “HSV2-gE_R314G F322A_gI (from UniProt P89475 21-416; P06764 21-256) (receptor)”, for which the Kd was 232 nM, the Response is 0.469 nm, the koff came to 0.00328 s⁻¹ and the on-rate constant (kon) was 14200 M⁻¹ s⁻¹.
“HSV2-gE_R314G F322I_gI (from UniProt P89475 21-416; P06764 21-256) (receptor)” registered a Kd of 272 nM, a Response of 0.291 nm, a koff of 0.00262 s⁻¹ and an association rate constant (kon) of 9620 M⁻¹ s⁻¹.
The matching figures for “HSV2-gE_P318R S338L_gI (from UniProt P89475 21-416; P06764 21-256) (receptor)”: 176 nM, 0.49 nm, 0.00138 s⁻¹ and 7870 M⁻¹ s⁻¹.
The substance “HSV2-gE_R314L F322A_gI (from UniProt P89475 21-416; P06764 21-256) (receptor)” registered a dissociation constant (Kd) of 303 nM, a Response of 0.603 nm, a koff of 0.00385 s⁻¹ and a kon of 12700 M⁻¹ s⁻¹.
In turn, “HSV2-gE_P317F V340M_gI (from UniProt P89475 21-416; P06764 21-256) (receptor)” displayed a Kd of 291 nM, a Response of 0.259 nm, a koff of 0.00189 s⁻¹ and an on-rate (kon) of 6510 M⁻¹ s⁻¹.
“HSV2-gE_P317K V340R_gI (from UniProt P89475 21-416; P06764 21-256) (receptor)” yielded a dissociation constant Kd of 241 nM, a Response of 0.508 nm, a koff of 0.00163 s⁻¹ and an association rate constant (kon) of 6740 M⁻¹ s⁻¹.
In the case of “HSV2-gE_R314L V340W_gI (from UniProt P89475 21-416; P06764 21-256) (receptor)”, the Kd was 914 nM, the Response amounted to 0.148 nm, the dissociation rate constant (koff) worked out at 0.00524 s⁻¹ and the kon stood at 5740 M⁻¹ s⁻¹.
Substance “HSV2-gE_P317K V340W_gI (from UniProt P89475 21-416; P06764 21-256) (receptor)” showed an equilibrium dissociation constant (Kd) of 517 nM, a Response of 0.111 nm, a koff of 0.00348 s⁻¹ and an on-rate (kon) of 6740 M⁻¹ s⁻¹.
Regarding “HSV2-gE_P317F V340R_gI (from UniProt P89475 21-416; P06764 21-256) (receptor)”, the Kd came out at 372 nM, the Response was found to be 0.301 nm, the koff was determined as 0.00218 s⁻¹ and the on-rate constant (kon) came to 5880 M⁻¹ s⁻¹.
In the case of “HSV2-gE_R314P P318I_gI (from UniProt P89475 21-416; P06764 21-256) (receptor)”, the Kd is 277 nM, the Response amounted to 0.248 nm, the off-rate (koff) turned out to be 0.00223 s⁻¹ and the kon amounted to 8040 M⁻¹ s⁻¹.
As to “HSV2-gE_P319L V340M_gI (from UniProt P89475 21-416; P06764 21-256) (receptor)”, the Kd was determined as 222 nM, the Response turned out to be 0.336 nm, the koff worked out at 0.00216 s⁻¹ and the kon came to 9750 M⁻¹ s⁻¹.
Turning to “HSV2-gE_R314L P318R_gI (from UniProt P89475 21-416; P06764 21-256) (receptor)”, the dissociation constant Kd is under 0.001 nM, the Response is 0.202 nm, the off-rate constant (koff) was under 1e-07 s⁻¹ and the on-rate constant (kon) is 8050 M⁻¹ s⁻¹.
